# Experimental data reported in US20110171218A1.
# Molecular target: TNF-alpha
# Assay: cell-based or functional assay
# Parameters: unit not given beside the values
# Chain of TNFR2-h(1)Fc (chain): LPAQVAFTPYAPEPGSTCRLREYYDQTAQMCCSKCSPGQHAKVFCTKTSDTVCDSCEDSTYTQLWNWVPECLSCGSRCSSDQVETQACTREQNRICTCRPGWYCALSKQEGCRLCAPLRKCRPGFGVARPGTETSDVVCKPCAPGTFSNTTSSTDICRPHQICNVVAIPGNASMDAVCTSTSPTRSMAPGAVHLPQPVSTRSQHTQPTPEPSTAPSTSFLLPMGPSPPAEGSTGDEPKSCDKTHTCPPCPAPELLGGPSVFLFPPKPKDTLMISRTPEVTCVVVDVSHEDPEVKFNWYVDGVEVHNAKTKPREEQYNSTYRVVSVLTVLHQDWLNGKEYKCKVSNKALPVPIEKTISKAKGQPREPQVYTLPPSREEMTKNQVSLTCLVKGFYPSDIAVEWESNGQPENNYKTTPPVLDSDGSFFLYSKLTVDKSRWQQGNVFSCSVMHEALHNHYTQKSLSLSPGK
row,"IC50 (WEHI Assay), normalized (normalized to TNFR2-h(1)Fc wt)",Substance
1,0.25,E155N S202N G253N TNFR2-h(1)Fc (Fc fusion)
2,1.6,D47N/E155N TNFR2-h(1)Fc (Fc fusion)
3,0.23,S202N G253N TNFR2-h(1)Fc (Fc fusion)
4,3,D47N/G253N TNFR2-h(1)Fc (Fc fusion)
5,0.57,E155N G253N TNFR2-h(1)Fc (Fc fusion)
6,0.25,T222N TNFR2-h(1)Fc (Fc fusion)
7,1.9,D47N TNFR2-h(1)Fc (Fc fusion)
8,0.29,T203N P205S TNFR2-h(1)Fc (Fc fusion)
9,1,TNFR2-h(1)Fc (Fc fusion)
10,1.1,D47N S202N TNFR2-h(1)Fc (Fc fusion)
